Results reported in PMC11402830.

Target: T1, human peptidyl arginine deiminase 6 (human), Q6TGC4
T1 chain: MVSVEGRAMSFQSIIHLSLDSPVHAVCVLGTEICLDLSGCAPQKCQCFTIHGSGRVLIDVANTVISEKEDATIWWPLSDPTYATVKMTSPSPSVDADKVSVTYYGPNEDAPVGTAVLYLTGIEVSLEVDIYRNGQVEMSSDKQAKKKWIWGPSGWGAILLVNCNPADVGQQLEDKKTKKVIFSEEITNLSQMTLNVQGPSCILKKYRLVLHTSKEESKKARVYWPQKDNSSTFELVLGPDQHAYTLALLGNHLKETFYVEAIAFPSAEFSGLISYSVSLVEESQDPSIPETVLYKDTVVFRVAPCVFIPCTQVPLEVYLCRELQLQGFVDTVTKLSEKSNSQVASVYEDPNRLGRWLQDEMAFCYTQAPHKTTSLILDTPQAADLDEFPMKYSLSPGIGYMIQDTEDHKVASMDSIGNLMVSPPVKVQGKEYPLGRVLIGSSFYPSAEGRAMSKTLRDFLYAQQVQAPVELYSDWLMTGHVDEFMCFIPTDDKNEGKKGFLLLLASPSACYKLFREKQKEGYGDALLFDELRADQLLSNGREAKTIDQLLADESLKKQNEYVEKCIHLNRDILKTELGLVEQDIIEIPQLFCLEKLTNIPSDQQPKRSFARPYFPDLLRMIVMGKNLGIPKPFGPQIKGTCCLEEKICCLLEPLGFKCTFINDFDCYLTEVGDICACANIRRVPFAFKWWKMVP
Assay: mass photometry; hPADI6 at 4 nM (diluted to about 40 nM in 50 mM Tris-HCl pH 7.5, 200 mM NaCl, 1 mM TCEP, then 2 uL into 18 uL PBS), TwoMP instrument; dimer to monomers
Conditions: remark: other sources report otherwise

B1: human peptidyl arginine deiminase 6, Q6TGC4 1-694 (natural protein)
chain: MVSVEGRAMSFQSIIHLSLDSPVHAVCVLGTEICLDLSGCAPQKCQCFTIHGSGRVLIDVANTVISEKEDATIWWPLSDPTYATVKMTSPSPSVDADKVSVTYYGPNEDAPVGTAVLYLTGIEVSLEVDIYRNGQVEMSSDKQAKKKWIWGPSGWGAILLVNCNPADVGQQLEDKKTKKVIFSEEITNLSQMTLNVQGPSCILKKYRLVLHTSKEESKKARVYWPQKDNSSTFELVLGPDQHAYTLALLGNHLKETFYVEAIAFPSAEFSGLISYSVSLVEESQDPSIPETVLYKDTVVFRVAPCVFIPCTQVPLEVYLCRELQLQGFVDTVTKLSEKSNSQVASVYEDPNRLGRWLQDEMAFCYTQAPHKTTSLILDTPQAADLDEFPMKYSLSPGIGYMIQDTEDHKVASMDSIGNLMVSPPVKVQGKEYPLGRVLIGSSFYPSAEGRAMSKTLRDFLYAQQVQAPVELYSDWLMTGHVDEFMCFIPTDDKNEGKKGFLLLLASPSACYKLFREKQKEGYGDALLFDELRADQLLSNGREAKTIDQLLADESLKKQNEYVEKCIHLNRDILKTELGLVEQDIIEIPQLFCLEKLTNIPSDQQPKRSFARPYFPDLLRMIVMGKNLGIPKPFGPQIKGTCCLEEKICCLLEPLGFKCTFINDFDCYLTEVGDICACANIRRVPFAFKWWKMVP
  dimer:monomer ratio at 4 nM (dimer:monomer): 8
  stoichiometry N: 2
